In publication PMC11145253 (Proceedings of the National Academy of Sciences of the …, 2024):

Molecular target: T1, CTDNEP1ΔAH as it stands in the crystallized CTDNEP1ΔAH-linker-sNEP1R1-His6 fusion (human, UniProt O95476 40-244)
T1 sequence (looked up): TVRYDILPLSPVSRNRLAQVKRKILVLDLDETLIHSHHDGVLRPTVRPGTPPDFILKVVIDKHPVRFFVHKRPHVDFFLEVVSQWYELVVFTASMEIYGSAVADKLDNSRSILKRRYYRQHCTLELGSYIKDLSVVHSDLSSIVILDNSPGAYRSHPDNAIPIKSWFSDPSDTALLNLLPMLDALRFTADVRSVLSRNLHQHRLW
Experiment: crystal structure

binding result: binds
Binder: GSAKGSES [linker peptide of the CTDNEP1ΔAH-linker-sNEP1R1-His6 fusion]
